According to PMC5551697 (The Journal of Cell Biology, 2017):

Legend:
[1] = biological target: T1, reconstituted Tda2–Aim21 complex (GST-Aim21–His-Tda2 complex) (S. cerevisiae, UniProt P40563 1-679; P40045 1-126); assay: pull-down
T1 sequence (looked up) 1: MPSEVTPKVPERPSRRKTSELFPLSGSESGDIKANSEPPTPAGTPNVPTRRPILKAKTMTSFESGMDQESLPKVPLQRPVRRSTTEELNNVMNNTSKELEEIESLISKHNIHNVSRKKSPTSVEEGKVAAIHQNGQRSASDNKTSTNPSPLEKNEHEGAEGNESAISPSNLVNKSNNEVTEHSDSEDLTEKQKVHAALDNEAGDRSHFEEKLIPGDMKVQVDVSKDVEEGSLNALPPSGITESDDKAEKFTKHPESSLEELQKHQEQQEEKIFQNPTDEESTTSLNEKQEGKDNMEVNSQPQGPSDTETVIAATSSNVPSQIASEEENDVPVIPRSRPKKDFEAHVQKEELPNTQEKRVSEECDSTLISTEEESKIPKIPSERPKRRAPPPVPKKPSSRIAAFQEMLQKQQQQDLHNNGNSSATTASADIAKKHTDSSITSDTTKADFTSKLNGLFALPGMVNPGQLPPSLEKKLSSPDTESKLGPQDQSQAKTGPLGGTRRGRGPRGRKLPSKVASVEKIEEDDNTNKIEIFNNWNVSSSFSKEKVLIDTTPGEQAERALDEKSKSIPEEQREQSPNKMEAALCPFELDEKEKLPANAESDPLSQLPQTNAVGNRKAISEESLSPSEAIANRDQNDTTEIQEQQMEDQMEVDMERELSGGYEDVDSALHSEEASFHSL
T1 sequence (looked up) 2: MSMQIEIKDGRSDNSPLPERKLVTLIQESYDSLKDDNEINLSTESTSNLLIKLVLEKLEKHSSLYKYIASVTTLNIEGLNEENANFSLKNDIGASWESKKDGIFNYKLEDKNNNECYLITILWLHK

[2] = biological target: the molecule itself; assay: AUC
[3] = biological target: T2, GST-Aim21 (S. cerevisiae, UniProt P40563 1-679); assay: pull-down
T2 sequence (looked up): T1 sequence (looked up) 1

B1: actin-capping protein carrying a 6His-tag in its Cap1 subunit (His-Cap1/Cap2 dimer) (complex, S. cerevisiae)
chain 1: MSSSKFEEVINKIINDSPPGELREVYDDLIKITSENSKNTILDAIENYNVQNCIPIEVNGNSVIISKYNKEGAKFFDPVNSVIFSVNHLERKGLDIEPYEFTHAKIEKGQLKELHDKLHEYLLQSFPGDVSFAVYPVPEEISKISIIIVSTKYNPNNFWNGHWRSSYIYDLETRELSGQISTQVHYYEDGNVSFQSGKDINQSNVDDVVCTIRDIETNFENDLDLSFFDLNEKQFKALRRRLPVTRSKINWGSAIGSYRLGKNAAEGK
chain 2: MSDAQFDAALDLLRRLNPTTLQENLNNLIELQPNLAQDLLSSVDVPLSTQKDSADSNREYLCCDYNRDIDSFRSPWSNTYYPELSPKDLQDSPFPSAPLRKLEILANDSFDVYRDLYYEGGISSVYLWDLNEEDFNGHDFAGVVLFKKNQSDHSNWDSIHVFEVTTSPSSPDSFNYRVTTTIILHLDKTKTDQNSHMMLSGNLTRQTEKDIAIDMSRPLDVIFTSHVANLGSLIEDIESQMRNLLETVYFEKTRDIFHQTKNAAIASSAEEANKDAQAEVIRGLQSL
binding result [1]: binds

B2: recombinant 6-histidine-tagged Tda2 (natural protein, S. cerevisiae, UniProt P40045 1-126, looked up)
chain: T1 sequence (looked up) 2
stoichiometry N [2]: 2 | binding result [3]: binds
